Measured values published in patent US20110262464A1, “Compositions, Kits, and Methods for the Diagnosis, Prognosis, and Monitoring of Cancer Using GOLPH3” (DANAFARBER CANCER INSTITUTE, INC., priority 2008, published 2011).

System: GOLPH3 localization at the Golgi in A549 cells
Assay: Immunofluorescence of GOLPH3 localization
Format: cell-based, human
Conditions: A549 treated with EGF at specific time points
Description: For immunofluorescence studies, cells were cultured on cover slips, followed by fixation for 15 min at RT in 4% paraformaldehyde in PBS, permeabilization for 10 min RT in 0.1% Triton X-100/PBS and blocking 1 hr RT in 10% goat or donkey serum/PBS. Slides were incubated 1 hr RT with the following antibodies: mouse anti-HA (1:100, Cell Signaling); rabbit anti-TGN46 (1:500; Abcam), goat anti-VPS35 (1:200; Abcam) and mouse anti-GOLPH3 (1:300). Slides were stained for 1 hour RT with the corresponding Alexa Flour secondary antibodies (Invitrogen). Cover slips were stained with DAPI (Sigma) and mounted with mounting medium. Microscopic images were obtained with a Nikon inverted Ti microscope equipped with Yokogawa spinning disk confocal/TIRF system and a Hamamatsu Orca ER firewire digital CCD camera using constant exposure times for each channel in individual experiments. Images were compiled and false-colored with Adobe Photoshop using identical settings for each color. Magnification is 100× unless otherwise indicated.
In order to determine whether or not ARF4 might regulate GOLPH3 localization at the Golgi apparatus, ARF4 siRNA were transfected into A549 cells.

B1: EGF: epidermal growth factor (Invitrogen), 100 ng/ml for stimulation assays (protein, UniProt P01133 23-1207, looked up)
Pro-epidermal growth factor: PQHWSCPEGTLAGNGNSTCVGPAPFLIFSHGNSIFRIDTEGTNYEQLVVDAGVSVIMDFHYNEKRIYWVDLERQLLQRVFLNGSRQERVCNIEKNVSGMAINWINEEVIWSNQQEGIITVTDMKGNNSHILLSALKYPANVAVDPVERFIFWSSEVAGSLYRADLDGVGVKALLETSEKITAVSLDVLDKRLFWIQYNREGSNSLICSCDYDGGSVHISKHPTQHNLFAMSLFGDRIFYSTWKMKTIWIANKHTGKDMVRINLHSSFVPLGELKVVHPLAQPKAEDDTWEPEQKLCKLRKGNCSSTVCGQDLQSHLCMCAEGYALSRDRKYCEDVNECAFWNHGCTLGCKNTPGSYYCTCPVGFVLLPDGKRCHQLVSCPRNVSECSHDCVLTSEGPLCFCPEGSVLERDGKTCSGCSSPDNGGCSQLCVPLSPVSWECDCFPGYDLQLDEKSCAASGPQPFLLFANSQDIRHMHFDGTDYGTLLSQQMGMVYALDHDPVENKIYFAHTALKWIERANMDGSQRERLIEEGVDVPEGLAVDWIGRRFYWTDRGKSLIGRSDLNGKRSKIITKENISQPRGIAVHPMAKRLFWTDTGINPRIESSSLQGLGRLVIASSDLIWPSGITIDFLTDKLYWCDAKQSVIEMANLDGSKRRRLTQNDVGHPFAVAVFEDYVWFSDWAMPSVMRVNKRTGKDRVRLQGSMLKPSSLVVVHPLAKPGADPCLYQNGGCEHICKKRLGTAWCSCREGFMKASDGKTCLALDGHQLLAGGEVDLKNQVTPLDILSKTRVSEDNITESQHMLVAEIMVSDQDDCAPVGCSMYARCISEGEDATCQCLKGFAGDGKLCSDIDECEMGVPVCPPASSKCINTEGGYVCRCSEGYQGDGIHCLDIDECQLGEHSCGENASCTNTEGGYTCMCAGRLSEPGLICPDSTPPPHLREDDHHYSVRNSDSECPLSHDGYCLHDGVCMYIEALDKYACNCVVGYIGERCQYRDLKWWELRHAGHGQQQKVIVVAVCVVVLVMLLLLSLWGAHYYRTQKLLSKNPKNPYEESSRDVRSRRPADTEDGMSSCPQPWFVVIKEHQDLKNGGQPVAGEDGQAADGSMQPTSWRQEPQLCGMGTEQGCWIPVSSDKGSCPQVMERSFHMPSYGTQTLEGGVEKPHSLLSANPLWQQRALDPPHQMELTQ
modifications: Pro-epidermal growth factor
notes: epidermal growth factor (Invitrogen), 100 ng/ml for stimulation assays
- GOLPH3 localization at the Golgi: redistribution of GOLPH3 from the Golgi
